Experiment: yeast display, Sf9 membrane polyspecificity reagent, FACS + sequencing; frameworks hold sequencing errors
In short: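 Galactose-induced (36–48 hours) yeast carrying a synthetic nanobody display library were exposed to 10% biotinylated, detergent-solubilized Sf9 membrane reagent at 4 °C for 1 hour. FACS followed streptavidin microbead enrichment, using low and high (top ~1%) gates for expression (anti-HA) and reagent binding (streptavidin). Colony PCR, MiSeq 2 × 250 sequencing and CDR-length filtering followed. Labels for polyreactivity reflect the gate of origin.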

Sequence	polyreactivity (PSR sort gate)
QDQLVDSGGGLVQAGGSLRLSCAASGRIFTINAMGWYRQAPGKERELVAAITYSGGSTYADSVKGRFTISRDNAKNTVYLQMNSLKPEDTAVYYCNAKLTWSRRYVRYNYWGQGTQVTVSS	high polyreactivity
QDQLVDSGGGLVQAGGSLRLSCAASGSTFGYYVMGWYRQAPGKERELVAAISDSDGSTYYADSVKGRFTISRDNAKNTVYLQMYSLKPEDTAVYYCATGPHQPPYSYLDYDYWGQGTQVTVSS	low polyreactivity
QDQLVDSGGGLVQAGGSLRLSCAASGSTFYYYTMGWYRQAPGKEGELVAAITSGGSTYYADSVKGRFTISRDNAKNTVYLQLNSLKPEDTAVYYCAADLRRNGWGFDYWGQGTQVTVSS	high polyreactivity
QDQLVDSGGGLVQAGGSLSLICAATGLIFNRNAMGWYRQAPGKERELVASISSGGRTNYADSVKGRFTISRDNAKNTVYLQMNSLKPEDTAVYYCAAKSPRILLDYWGQGTQVTVSS	low polyreactivity
QDQLVDSGGGLVQAGGSLSLSCAASGYILDYYAMGWSRQAPGKERELVAAISYRGDSTYYADSVKGRFTISRDNEKNTVYLQMNSLKPEDTAVYYCNAGYFTRAQYEYDYWGQGSQVTVSS	high polyreactivity
QDQLVESAGGLVQAGGSLRLSCAASGLTFWDYAMGWSRQAPGKERELVAGINTRGTSTYYADSVKGRFTISRDNAKNNVYLQMNSLKPEDTAVYYCAARVRSELIKRYYWGQGSQVTVSS	high polyreactivity
QDQLVESAGGLVQAGGSLRLSCAASGRIYVSNVMRWSRQAPGKERELVAAIDKSGGSTYYADSVKGRFTISRDNAKNTVYLQMNSLKPEDTAVYYCAATSYRQPYRYYYWGQGTQVTVSS	high polyreactivity
QDQLVESAGGLVQAGGSLSLSCAATGFTFYYNAMGWYRPAAGKERELVASITRSGGRTYYADSVKGRFTISRDNAKNTVYLQMNSLKPEDTAVFYCARRYPGGYYWGQGTQVTVSS	high polyreactivity
QDQLVESCGGLVQARGSLRLSCAASGFTFRYNAMGWYRQAPGKERELVAAITGSTGTTYYADSVKGRFTISRDNAKNTVYLQMNSLKPEDTAVYYCAATFRDQHGSLYGYWGQGSQVTVSS	high polyreactivity
QDQLVESGAGLVQAAGSLRLSCAASGSTFDTYALGWYRQAPGKERELVAAISVSGTSTSYADSVKGRFTISRDNAKNTVYLQMNSLKPEDTAVYYCNATDFSRNPGYARPEYDYWGQGTHVTVSS	low polyreactivity
QDQLVESGAGLVQAGGSLRLSCAASGRIFDRYAMGWYRQAPGKEREMVAAITTSSGGSTYYADSVKGRFTISRDNAKNTVYLQMHSLKPEDTAVYYCAADRRYNVIGEFGYWGQGTQVTVSS	low polyreactivity
QDQLVESGGCLDQAGCSLRLSCAASGSIFYYNAMGWSRQAHGKESEFVATITNSGGRTYDADSVKGRFTISRDNAKNSVYLQMNSLKPEDTAVYYCNADVHRFSGNGYRYYYWGQGTQVTVSS	low polyreactivity
QDQLVESGGCLVQAGGSLRLSCAASGSIFYVNAMGWYRPAPRKERELVAGISRSGGRTYYADSVKGRFTISRDNAKNTVYLHMNSLIPEDTAVYYCAALVGRIWYGLDYWGQGTQVTVSS	high polyreactivity
QDQLVESGGCLVQAGGSLRLSCAASGSTFDTNSMGWSRQAPGKERELVAAISGSGVRTYYADSVKGRFSISRDNAKITVYLQMNRLNPEDTAVYYCAARGSRRGTWYDYWGQCTQVTVSS	high polyreactivity
QDQLVESGGGIVQAGGSLRLSCAASGIIFGFYAMGWYIKAPGKERELVASISYSGGRTYYADSVKGRFTISRDNAKNTFYLQMISLKPEDTAVYYCAARLYWIPPSPSRYDYWGQGTQVTVSS	high polyreactivity
QDQLVESGGGIVQAGGSLRLSCAASGRTFVAYAMGLYRQAPGKEREFVARISSGGSTYYADSVKGRFTISRDNAKNTVYLQMNSLKPEDTAVYYCAADRGPYFVPWRRYDYWGQGTQVTVSS	low polyreactivity
QDQLVESGGGIVQAGGSLRLSCAASGRTFYRYAMGWYRQAPGKERELVATISGGGSTNYADSVKGRFTISRDNAKNTVYFQMNSLKPEDTAVYYCAVRLRPPYYLPYYYWGQGTQVTVSS	high polyreactivity
QDQLVESGGGLDQAGGSLRLSCAASGNIFYSYAMGCYRQAPGKERELVAAISSSGGRTYYADSVKGRFTISRDNAKNTVYLQMNSLKPEDTELYYCNAYVQVMRYLFGRPTVYPYDYWGQGTQVTVSS	high polyreactivity
QDQLVESGGGLDQAGGSLRLSCAASGRIFYPYTMGWYRQAPGKERELVAANTRSAASTHYADSVKGRFTISRDNAKNTVYLQMNSLKPEDTAVYYCAADDRGSSYGHFTVEYGYWGQGTQVTVSS	low polyreactivity
QDQLVESGGGLDQAGGSLRLSCAASGRILIIYAMGWYRQAPGKERELVARITYTGGRTYYADSVKGRFTISRDNAKNTVYLQMTSLKPEDTAVYYCATVWSRSDSSSHYDYWGQGTQVTVSS	low polyreactivity
QDQLVESGGGLDQAGGSLRLSCAASGRTFRKYAMGWYSQAPGKERELVAAITTSGARTYYADSVKGRFTISRDNAKNTVYLQMNILKPDDTAVYYCNAVSPYDGIEFDYWGLGTQVTVSS	high polyreactivity
QDQLVESGGGLFQAGGSLRLSCAASGFTFTSYNMGWYRQAPGKEMELVAGISLSGGDTSYADSVKGRFTISRDNAKNTVYLQMNSMKPEDTAVYFCAKSYVNYAFDSWGHGTQVTVSS	high polyreactivity

Sequence	polyreactivity (PSR sort gate)
QDQLVESGGGLGQAGGSLRLSCAASGSTFNNYAMGWYRQAPGKERELVAVITKRGGSTYYADSVKGRFTISRDTAKNTVHLQMNSLKPEDTAVYYCPASSLYDGYWGQGTQVTVSS	high polyreactivity
QDQLVESGGGLGQAGGTLRLSCAASGNTFTFNTMGWHRQEPGKEREVVAVISRSGGSTYYSDSVKGRITISRDNAKNTVYLQMNSLKPEDTAVYYCAAQGYWYGFVPYDYWGQGTQVTVSS	high polyreactivity
QDQLVESGGGLLQAGGSLRLSCAASGRNFVRNAMGWYRQAPGKEWELVAAISWSSGGTYYADSVKGRFTISRDNAKYTVYLQMNSLKPEDNSVYYCNARGWTLGADFGYWGQGTQVTVSS	low polyreactivity
QDQLVESGGGLLQAGGSLRLSCAASGYTFPIYAMGWYRQAPGKERELVAGISKNGGSTYYADSVKGRFTISRDNAKNTVYLQMNSLKPEDTEVYYCNASAWGRPYYRGSYFVFPGYEYWGQGTQVTVSS	low polyreactivity
QDQLVESGGGLVPAGGSLRLSCAASGGILPQYAMGWYRQAPGKERELVAAITRGGARTYYADSVKGRFTISRDNAKNTVYLQMTSLKPEDTAVYYCAARGPGYQLYDYWGQGTQVTVSS	high polyreactivity
QDQLVESGGGLVQAGASLRLSCAASGNIFANAMGWYRQAPGKQRELVAAISRSGGRTYYADSVKGRFTISRDNANNTVYLQMKSLIPEDTAVSYCNKAAYNYYLYGYWGQGTQVTVSS	high polyreactivity
QDQLVESGGGLVQAGASLRLSCAASGRISYYYTMGWYRQAPGKERELVAAISWSGGTTYYADSVKGRFTISRDNAKNTVYLQMNSLKPDDTAVYYCAAREYYTDVHGTRRYDYWGQGTQVTVSS	low polyreactivity
QDQLVESGGGLVQAGCSLRISCAASGRTFGVYAMGWYRQAPGKERELVAAINRSGTRTYYADSVKGRFTISRDHAKNTVYLPMNSLKPEDTAVYYCAASWYPGSRNYDYWGQGTQVTVSS	high polyreactivity
QDQLVESGGGLVQAGCSLRLSCAASGRIFSWYTMGWYRPAPGKERELVAVITSGGTTKYADSVKGRITISRDNAKNTVYLQMNSLKPEDTAVYYCNVAGRDYAVRWGSFDYWGQGTQVTVSS	low polyreactivity
QDQLVESGGGLVQAGGILRLSCAASGITFSYYTMGWYSQAPGKERELVAGITRSGSTYYADSVKGRFTISRDNAKNTVYLQMNSLKPEDTAVYYCAAEIYAFSGLYYYCGQGTQVTVSS	high polyreactivity
QDQLVESGGGLVQAGGRLRLSCAASGSIFVRNFMGWYRQAPGKERELVPAISWNGGSTFYADSVKWRFTISRDNAKNTVYLQMNSLKPEETAVYYCATRYGRHGWFYLYDYWGQGTQVTVSS	low polyreactivity
QDQLVESGGGLVQAGGSLLLSCAASGGIFRFKAMGWYRQARGKERELVAAIIRGGSTYYADSVKGRFTISRDNAKNTVYLQMISLKPEDTAVYDCAADYEYRTKTRDGYYCGQGTQVTVSS	low polyreactivity
QDQLVESGGGLVQAGGSLPLSCAASGLTFDYYVMGGYRQAPGKERELVATISWSGDITYYADSVKGRFTISRDNAKNTVYLQMNSLKPEDTAVYYCAADPYSWREGGYWGQGTQVTVSS	low polyreactivity
QDQLVESGGGLVQAGGSLRFSCAASGRIFTYYTMGWYRQAPGKERELVARITFSAGRTYYADSVKGRFTISRDNAKNTVYLQMNSLKPEDTAVYYCAARSYHYRNYYWGQGTQVTVSS	high polyreactivity
QDQLVESGGGLVQAGGSLRIICAASGSIVVTNAMGWYRQAPGKVRELVAAMSGRADSTYADSVKGRFTISRDNAKNTVYLQMNSLKPEDTAVDYCAAKVRGWHYYYCGQGTQVTVSS	low polyreactivity
QDQLVESGGGLVQAGGSLRISCAASGRIFYYYGMGWYRQAPGKEWELVAAITSDGDTNYADSVKGRLTISRDNAKNTVYLQMNSLKPADTAVYYCAGKWDWGYWRGFQYGFNYWGQGTQVTVSS	low polyreactivity
QDQLVESGGGLVQAGGSLRLICAASGRIFGVNAMGWYRQAPGKERELVAVISSGGSTYYADSVKGRFTISRDNAKNTVYLQMNSLKPEDTAVYYCAAEIYFFVSYDYWGQGTQVTVSS	low polyreactivity
QDQLVESGGGLVQAGGSLRLICAASGRIFVYYAMGWYRQAPGKERVLVATISSGGSTYYADSVKGRFTISRDNAKNTVYLQMNSLKPEDTAVYYCAADTDNRDLAYYYKGDYWGQGTQVTVSS	low polyreactivity
QDQLVESGGGLVQAGGSLRLICAASGRILTSYAMGWYRQAPGKERELVAAISGSSASTYYADSVKGRFTISRDNAKNTVYLQMNSLKPEDTAVYYCAAYKYDYRVDTGYDYWGQGTQVTVSS	low polyreactivity
QDQLVESGGGLVQAGGSLRLICAASGRSLIHYAMGWYRQAPGKERELVASMTYSGGSTYYADSVKGRFTISRDNAKMTVYLQMNSLKPEDTAVYYCAATLGNRWFHYNYWGQGTQVTVSS	low polyreactivity
QDQLVESGGGLVQAGGSLRLICAASGRTFTFYAMGWSRQAPGKERELVAAIRRGGSTNYADSVKGRFTISRDNAKNTVYLQMNSLKPEDTAVYYCNKRVWYPYWTLDYWGQGTQVTVSS	low polyreactivity
